This data set deals with T1, SSB (single-strand binding protein) (Sulfolobus solfataricus, UniProt Q97W73 1-148).
T1 sequence: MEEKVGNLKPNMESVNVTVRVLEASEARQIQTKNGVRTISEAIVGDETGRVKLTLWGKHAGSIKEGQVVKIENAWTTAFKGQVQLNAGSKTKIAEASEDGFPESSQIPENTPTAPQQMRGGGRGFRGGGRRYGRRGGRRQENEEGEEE
Description: EMSA.

The values below come from article PMC548347.

B1: RGA oligonucleotide (dsDNA)
DNA 1: GGCTGTCGACGAAGATAGAGGACTTAATCGATATC
DNA 2: GGGATATCGATTAAGTCCTCTATCTTCGTCGACAG
For B1, the binding result is listed as “binds”.
